Molecular target: CpxA^QTY (water-soluble QTY-code variant of the sensor histidine kinase CpxA), his-tagged (E. coli) (UniProt P0AE82)

B1: periplasmic protein CpxP (natural protein)
chain: AEVGSGDNWHPGEELTQRSTQSHMFDGISLTEHQRQQMRDLMQQARHEQPPVNVSELETMHRLVTAENFDENAVRAQAEKMANEQIARQVEMAKVRNQMYRLLTPEQQAVLNEKHQQRMEQLRDVTQWQKSSSLKLLSSSNSRSQ
inhibition of the autokinase activity of CpxA^QTY (1 μM, 1 mM ATP, RT, 2 min, anti-pHis western blot) by different concentrations of CpxP; CpxP excess needed for inhibition by approximately half (fold (CpxP over kinase)): 10
